Assay [1] has as its target α4β7 integrin (UniProt P13612 34-970; P26010 20-723). The assay is described as follows: competitive ELISA, coated α4β7 integrin, Fc-tagged MadCAM-1 as competitor, bound antibody detected with anti-human IgG-POD, 4PL fit. The method, then:
Constant amount of the coated α4β7 integrin is incubated with serial dilutions of natalizumab in the presence of Fc-tagged MadCAM-1 receptor. natalizumab and MadCAM-1 receptor now compete for binding to solid-phase associated α4β7 integrin. The higher the natalizumab concentration the more MadCAM-1 is inhibited from binding to α4β7 integrin. The lowest signal result is observed when no natalizumab is present. Bound natalizumab is subsequently detected with a POD-conjugated anti-human IgG antibody and a TMB-substrate reaction at the end of the assay.
Data are analyzed with 4PL fitting model. Final result is expressed as a Relative Potency (REP) of tested sample in relation to reference standard. The method variability was determined at the level of 8% coefficient variation (CV) of intermediate precision within the qualification exercise. Additionally accuracy, linearity and specificity were tested.
On the technique in general: An ELISA detects its analyte on a solid surface through an enzyme-linked reagent.

The target of assay [2] is T1, integrin α4β1 (coated, direct ELISA) (UniProt P13612 34-970; P05556 21-728, limits assumed).
T1 construct: Coated on the plate in the direct ELISA; also called α4β1 integrin; VLA-4
The assay is described as follows: direct ELISA, coated integrin α4β1, anti-human IgG-HRP detection, 4PL fit. The protocol:
The principle of this method is to incubate a coated constant amount of integrin α4β1 with serially diluted natalizumab samples. The amount of bound natalizumab is subsequently determined by a mouse, monoclonal anti-human IgG antibody, which is conjugated to horseradish peroxidase (HRP). HRP converts the chromogenic substrate TMB (3,3′,5,5′-tetramethylbenzidine) into a colored dye. The color reaction is measured spectrophotometrically at wavelength 450 nm.
Data are analyzed applying 4 Parameter Logistic nonlinear regression model (4PL), which is commonly used for curve-fitting analysis in bioassays or immunoassays such as ELISAs or dose-response curves. Final result is expressed as a Relative Potency (REP) of tested sample in relation to interim reference standard established at Polpharma site. The method variability was determined at the level of 7% coefficient variation (CV) of intermediate precision within the qualification exercise.

Assay [3] addresses HIS-tagged α4β1 integrin (UniProt P13612 34-970; P05556 21-728, limits assumed). The assay is described as follows: competitive ELISA, coated VCAM-1 as competitor, HIS-tagged α4β1 integrin in solution, 4PL fit. The protocol:
Constant amount of the coated VCAM-1 protein is incubated with serial dilutions of natalizumab in the presence of HIS-tagged α4β1 integrin. Solid-phase associated VCAM-1 and soluble natalizumab now compete for binding to α4β1 integrin. The higher the natalizumab concentration the more α4β1 Integrin is inhibited from binding to VCAM-1. The highest signal result is observed when no natalizumab is present. Bound HIS-tagged α4β1 integrin is subsequently detected with a biotinylated anti-HIS-tag antibody, POD-conjugated Streptavidin and a TMB-substrate reaction at the end of the assay.
Data are analyzed with 4PL fitting model. Final result is expressed as a Relative Potency (REP) of tested sample in relation to reference standard. The method variability was determined at the level of 7% coefficient variation (CV) of intermediate precision within the qualification exercise. Additionally accuracy, linearity and specificity were tested.

B1: natalizumab biosimilar antibody produced by CHO DG44 Clone 1 (antibody, human IgG4, kappa, V domains shown)
VH: QVQLVQSGAEVKKPGASVKVSCKASGFNIKDTYIHWVRQAPGQRLEWMGRIDPANGYTKYDPKFQGRVTITADTSASTAYMELSSLRSEDTAVYYCAREGYYGNYGVYAMDYWGQGTLVTVSS
VL: DIQMTQSPSSLSASVGDRVTITCKTSQDINKYMAWYQQTPGKAPRLLIHYTSALQPGIPSRFSGSGSGRDYTFTISSLQPEDIATYYCLQYDNLWTFGQGTKVEIKR
notes: Tested product from the clone selection step; full-length IgG4
With B1, in assay [1], the “Relative Potency (REP), average” value was 0.81 relative to reference standard; the “Relative Potency (REP), max” value is 0.857 relative to reference standard; the “Relative Potency (REP), min” value is 0.738 relative to reference standard. In assay [2], the “Relative Potency (REP), average” value is 0.769 relative to interim reference standard; the “Relative Potency (REP), max” value is 0.847 relative to interim reference standard; the “Relative Potency (REP), min” value was 0.723 relative to interim reference standard. For the same molecule, in assay [3], the “Relative Potency (REP), average” value is 0.829 relative to reference standard; the “Relative Potency (REP), max” value was 0.842 relative to reference standard; the “Relative Potency (REP), min” value was 0.805 relative to reference standard.

B2: natalizumab reference product (9 batches) (antibody, human IgG4, kappa, V domains shown)
VH: QVQLVQSGAEVKKPGASVKVSCKASGFNIKDTYIHWVRQAPGQRLEWMGRIDPANGYTKYDPKFQGRVTITADTSASTAYMELSSLRSEDTAVYYCAREGYYGNYGVYAMDYWGQGTLVTVSS
VL: DIQMTQSPSSLSASVGDRVTITCKTSQDINKYMAWYQQTPGKAPRLLIHYTSALQPGIPSRFSGSGSGRDYTFTISSLQPEDIATYYCLQYDNLWTFGQGTKVEIKR
Take B2: in assay [1], the “Relative Potency (REP), average” value is 0.998 relative to reference standard; the “Relative Potency (REP), max” value was 1.08 relative to reference standard; the “Relative Potency (REP), min” value was 0.922 relative to reference standard. In addition, in assay [3], the “Relative Potency (REP), average” value was 1.02 relative to reference standard; the “Relative Potency (REP), max” value was 1.15 relative to reference standard; the “Relative Potency (REP), min” value is 0.935 relative to reference standard.

B3: natalizumab biosimilar antibody produced by CHO DG44 Clone 2 (antibody, human IgG4, kappa, V domains shown)
VH: QVQLVQSGAEVKKPGASVKVSCKASGFNIKDTYIHWVRQAPGQRLEWMGRIDPANGYTKYDPKFQGRVTITADTSASTAYMELSSLRSEDTAVYYCAREGYYGNYGVYAMDYWGQGTLVTVSS
VL: DIQMTQSPSSLSASVGDRVTITCKTSQDINKYMAWYQQTPGKAPRLLIHYTSALQPGIPSRFSGSGSGRDYTFTISSLQPEDIATYYCLQYDNLWTFGQGTKVEIKR
notes: as for B1
Turning to B3, the “Relative Potency (REP), average” value in assay [1] is 0.831 relative to reference standard; in assay [2], 0.679 relative to interim reference standard; in assay [3], 0.903 relative to reference standard. Besides, the “Relative Potency (REP), max” value in assay [1] was 0.858 relative to reference standard; in assay [2], 0.732 relative to interim reference standard; in assay [3] it was 0.93 relative to reference standard. In addition, the “Relative Potency (REP), min” value in assay [1] was 0.79 relative to reference standard; in assay [2] it was 0.611 relative to interim reference standard; in assay [3], 0.85 relative to reference standard.

The values above are taken from patent publication US20190225694A1 (ZAKLADY FARMACEUTYCZNE POLPHARMA, published 2019).
